Reference: article PMC10101019

Target: DENV-2 particles (dengue virus 2)

B1: Trx-tagged mucin protein of Aedes aegypti (natural protein)
chain: MQTFACICLISILISESFGKFDTPADPVFSDDVTDYDSPSGIDYYDVKDYPMIPGELNVYRKTKPGGLLPSSDVDMKGKMLTSKEVTTKPRNIPTRQHRVQNRIRKPARFSTVVPLPTAALTAPQCILQRTTPKPLWRREGGRVIIDGSDPNIDIFKVMRESRRRPTEAPKPTGNLPMRDIVGNEIKPETASNQFLVLGSVLRCRETKQEVHEHRTRNSRVEISDPTVTGLTVEYPPNIIRLTHRFESTSTGGKAFVFRTMNGKQGILKLKWYSCPTRNSG
  DENV-2 titer by focus-forming assay 6 days after microinjection of DENV-2 particles with anti-mucin antibodies into Ae. aegypti, against DENV-2 with PBS or pre-immune serum (% reduction in DENV-2 titer): 12.5
